Measurements taken from article PMC8600089, “The development of a high-affinity conformation-sensitive antibody mimetic using a biocompatible copolymer carrier (iBody)” (The Journal of Biological Chemistry, 2021).
Starred links: 1 amine or outer side, 2 acyl side, 3 side chain; linkers in the order of their positions; H or OH if unused. Positions of bridges follow the written chain, without caps; N, C: chain ends. Groups on a side chain read outwards from the residue. *: point of attachment. PEG12 = NCCOCCOCCOCCOCCOCCOCCOCCOCCOCCOCCOCCOCCC(=O)O; Biotin = O=C1N[C@H]2[C@H](CS[C@H]2CCCCC(=O)*)N1; TBMB = c1c(C[*:1])cc(C[*:3])cc1C[*:2]

Target: T1, recombinant extracellular part of PSMA (construct not named; ELISA and SPR) (human, UniProt Q04609 44-750)
T1 construct: prostate-specific membrane antigen (PSMA), recombinant extracellular part; also called recombinant extracellular domain of PSMA; truncated version of the target enzyme
Settings: both partners purified

T1 sequence (Q04609 44-750): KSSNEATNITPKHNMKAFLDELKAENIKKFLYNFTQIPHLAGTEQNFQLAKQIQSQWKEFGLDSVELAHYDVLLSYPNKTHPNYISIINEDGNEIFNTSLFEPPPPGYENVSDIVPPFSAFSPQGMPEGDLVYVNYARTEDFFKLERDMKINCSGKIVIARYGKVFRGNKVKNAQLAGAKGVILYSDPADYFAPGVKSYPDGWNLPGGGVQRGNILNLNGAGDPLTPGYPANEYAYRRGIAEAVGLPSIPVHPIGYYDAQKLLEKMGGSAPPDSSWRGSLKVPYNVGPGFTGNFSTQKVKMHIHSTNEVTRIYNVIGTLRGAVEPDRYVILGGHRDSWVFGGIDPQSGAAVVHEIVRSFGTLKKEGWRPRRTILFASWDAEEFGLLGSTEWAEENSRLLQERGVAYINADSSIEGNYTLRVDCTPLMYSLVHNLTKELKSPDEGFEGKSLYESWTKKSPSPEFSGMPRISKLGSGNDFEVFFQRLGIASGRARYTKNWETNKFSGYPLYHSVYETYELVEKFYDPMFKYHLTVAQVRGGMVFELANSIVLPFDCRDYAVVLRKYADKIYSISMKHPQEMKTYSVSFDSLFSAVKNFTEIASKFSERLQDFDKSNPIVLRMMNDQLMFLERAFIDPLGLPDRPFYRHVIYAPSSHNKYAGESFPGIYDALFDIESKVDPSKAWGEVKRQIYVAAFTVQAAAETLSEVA

B1: Peptide 1 (compound 1), TBMB-cyclized Ac-CDDECPDYVCGGSGK[PEG12-biotin]-NH2 (peptide)
peptide: Ac-CDDECPDYVCGGSGK([PEG12-Biotin])-NH2
modifications: linker 1-5-10 via TBMB
SMILES: CC(=O)N[C@H]1CSCc2cc3cc(c2)CSC[C@H](NC(=O)[C@H](CCC(=O)O)NC(=O)[C@H](CC(=O)O)NC(=O)[C@H](CC(=O)O)NC1=O)C(=O)N1CCC[C@H]1C(=O)N[C@@H](CC(=O)O)C(=O)N[C@@H](Cc1ccc(O)cc1)C(=O)N[C@@H](C(C)C)C(=O)N[C@H](C(=O)NCC(=O)NCC(=O)N[C@@H](CO)C(=O)NCC(=O)N[C@@H](CCCCNC(=O)CCOCCOCCOCCOCCOCCOCCOCCOCCOCCOCCOCCOCCNC(=O)CCCC[C@@H]1SC[C@@H]2NC(=O)N[C@@H]21)C(N)=O)CSC3
notes: bicyclic peptide selected by phage display against PSMA, with the GGSG spacer and an added lysine; also called the peptide; bicyclic peptide; source: synthetic peptide (SPPS, TBMB cyclization, RP HPLC); not shown: biotin (through a PEG12 linker on the C-terminal lysine), C-terminal, kept
- EC50: > 5000 nM

B2: iBody 1, poly(HPMA-co-Ma-β-Ala-compound 2-co-Ma-β-Ala-ATTO488-co-Ma-β-Ala-NH-ED-biotin) (designed binder)
peptide: CDDECPDYVCGGSGK
modifications: not fully specified; N-terminus acetylated; C-terminal amide; three cysteines cyclized with TBMB; lysine side chain carries (CO)CH2CH2(OCH2CH2)5-NH2 (compound 2), through which the peptide is joined to the HPMA copolymer backbone; the polymer also carries ATTO488 (3.0× per polymer) and biotin (11.6× per polymer)
notes: bicyclic Peptide 1 as compound 2, 9.8 copies per polymer (20.4 wt%); Not a polypeptide as a whole: about 9.8 copies of the peptide on a synthetic HPMA copolymer (Mn = 88,100 g/mol, Mw = 104,000 g/mol); also called the iBody; copies: 9.8
- EC50: 2 nM
